Source: patent publication EP2292266A1 (Novartis Forschungsstiftung, Zweigniederlassung, dated 2011)

Columns and labels:
[1] = target: RACK1, receptor of activated C kinase (human, UniProt P63244 1-317); assay: Copine-III IP from SKBr3 lysates, relative quantification by MRM mass spectrometry
ErbB2 = target: T1, ErbB2 (human, UniProt P04626 23-1255, tyrosine-phosphorylated (active) receptor after HRG stimulation; sites not resolved in the IP and FRET experiments); assay: ErbB2 immunoprecipitation from SKBr3 and T47D cells
T1 construct: whole, on cells; Endogenous receptor, tested in fixed cells (FRET) and in cell lysates (co-IP); also called HER2

B1: Copine III (other)
chain: MAAQCVTKVALNVSCANLLDKDIGSKSDPLCVLFLNTSGQQWYEVERTERIKNCLNPQFSKTFIIDYYFEVVQKLKFGVYDIDNKTIELSDDDFLGECECTLGQIVSSKKLTRPLVMKTGRPAGKGSITISAEEIKDNRVVLFEMEARKLDNKDLFGKSDPYLEFHKQTSDGNWLMVHRTEVVKNNLNPVWRPFKISLNSLCYGDMDKTIKVECYDYDNDGSHDLIGTFQTTMTKLKEASRSSPVEFECINEKKRQKKKSYKNSGVISVKQCEITVECTFLDYIMGGCQLNFTVGVDFTGSNGDPRSPDSLHYISPNGVNEYLTALWSVGLVIQDYDADKMFPAFGFGAQIPPQWQVSHEFPMNFNPSNPYCNGIQGIVEAYRSCLPQIKLYGPTNFSPIINHVARFAAAATQQQTASQYFVLLIITDGVITDLDETRQAIVNASRLPMSIIIVGVGGADFSAMEFLDGDGGSLRSPLGEVAIRDIVQFVPFRQFQNAPKEALAQCVLAEIPQQVVGYFNTYKLLPPKNPATKQQKQ
notes: Endogenous protein of the human breast tumor cell lines T47D and SKBr3, tested in cell lysates (pull-down, IP) or in fixed cells (FRET); also called CPNE3; CPN3
[1]
  fold enrichment in Copine-III IPs vs. control IPs: 1.5 fold
ErbB2
  binding result: binds
